Source: patent publication US20120231013A1 (Amgen, published 2012)
Changes are numbered by the printed parent chain. Values joined by “and” are separate entries in the source; they are usually repeats but may differ in a detail not shown here. Equal values may be shown once.

T1: recombinant human TIMP-3 (human, UniProt P35625 24-211)
T1 sequence (looked up): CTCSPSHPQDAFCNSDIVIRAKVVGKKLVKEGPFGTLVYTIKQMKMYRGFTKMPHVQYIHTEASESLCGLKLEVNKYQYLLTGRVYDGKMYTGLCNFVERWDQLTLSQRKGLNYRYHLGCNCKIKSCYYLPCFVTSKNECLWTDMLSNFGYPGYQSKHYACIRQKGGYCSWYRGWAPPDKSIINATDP

T2: recombinant mouse TIMP-3 (mouse, UniProt P39876 24-211)
T2 construct: also called MuTIMP-3
T2 sequence (looked up): T1 sequence (looked up) with T51S, D87E, Q103H, I183S

B1: LRP-1 peptide LA24-25 (peptide)
chain: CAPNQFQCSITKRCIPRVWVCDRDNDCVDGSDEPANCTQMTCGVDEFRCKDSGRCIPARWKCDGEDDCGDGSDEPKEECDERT
notes: Tags implied (Ni-NTA, anti-HA detection), not described
B2: LRP-1 peptide LA25-26 (peptide)
chain: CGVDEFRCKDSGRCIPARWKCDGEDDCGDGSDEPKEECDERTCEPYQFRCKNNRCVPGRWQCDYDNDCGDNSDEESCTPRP
B3: LRP-1 peptide LA24 (peptide)
chain: not shown
notes: as for B1
B4: LRP-1 peptide LA25 (peptide)
chain: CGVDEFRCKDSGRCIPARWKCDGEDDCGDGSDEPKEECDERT
notes: as for B1
B5: LRP-1 peptide LA8-10 (peptide)
chain: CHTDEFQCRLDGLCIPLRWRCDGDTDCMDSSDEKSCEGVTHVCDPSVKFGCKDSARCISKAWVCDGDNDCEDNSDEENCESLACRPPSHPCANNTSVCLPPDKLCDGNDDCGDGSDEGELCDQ
notes: The end 1184 is inferred from the end of Cluster II; Tags implied, not described
B6: LRP-1 peptide LA3-4 (peptide)
chain: not shown
notes: as for B1
B7: LRP-1 peptide LA5-6 (peptide)
chain: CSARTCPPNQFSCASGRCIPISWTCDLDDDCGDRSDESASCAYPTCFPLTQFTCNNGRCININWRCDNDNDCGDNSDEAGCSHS
notes: as for B1
B8: LRP-1 peptide LA15-17 (peptide)
chain: CPLNYFACPSGRCIPMSWTCDKEDDCEHGEDETHCNKFCSEAQFECQNHRCISKQWLCDGSDDCGDGSDEAAHCEGKTCGPSSFSCPGTHVCVPERWLCDGDKDCADGADESIAAGCLYNST
notes: The end 2817 is inferred from the end of LA17
B9: LRP-1 peptide LA15 (peptide)
chain: not shown
notes: The end 2733 is inferred from the start of LA16 (2734)
B10: LRP-1 peptide LA4 (peptide)
chain: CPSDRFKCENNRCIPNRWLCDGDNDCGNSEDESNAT
notes: as for B1

How the values were obtained:
[1] = target: T3, recombinant TIMP-3 (human or mouse; Table 2 does not say which); experiment: binding ELISA, Assay 2
T3 construct: The methods say 'human or mouse TIMP-3'

[2] = target: T3, recombinant TIMP-3 (human or mouse; …); experiment: binding ELISA, Assay 3
[3] = target: T1, recombinant human TIMP-3; experiment: cell-based or functional assay
[4] = target: T1, recombinant human TIMP-3; experiment: direct ELISA, coated huTIMP-3
Protocol: (§1) After incubation, the coating solution is removed and replaced with 250 microL/well of blocking buffer (1% BSA, TBS [pH 7.5], 1 mM CaCl₂) and incubated with shaking for 1 hour at room temperature. The plates are then washed three times with 200 microL/well with wash buffer 1 (TBS [pH 7.5], 1 mM CaCl₂). The LRP-1 peptides are titrated in assay buffer (0.1% BSA, TBS [pH 7.5], 1 mM CaCl₂, 0.02% Tween-20) in a separate polypropylene non-treated round-bottom 96-well plate (BD Falcon™) starting at 1 microM concentration and then diluted serially 4-fold for 8-points, with the last point buffer only. Then 100 microL/well of the diluted LRP-1 peptide titration is added to the TIMP-3 coated plate and allowed to bind for 1.5 hour at room temperature with shaking. After incubation, the plate is washed three times with 200 microL/well of wash buffer 2 (TBS [pH 7.5], 1 mM CaCl₂, 0.02% Tween-20). […] The assay plate is then washed three times with 200 microL/well with wash buffer 2. The plate is developed by adding 100 microL/well of 1:1 mixture of TMB and H₂O₂ (Pierce, Fisher Thermo Scientific, Rockford Il.), the reaction is stopped by adding 100 microL/well 2NH₂SO₄ (VWR), and read on a SpectraMax microplate reader (Molecular Devices, Sunnyvale, Calif.) at OD450 nm using SOFTmax Pro software version 3.1.2. Data is analyzed using GraphPad Prism 4.01 software. Binding of LRP-1 peptides to TIMP-3 is expressed as binding EC50.

[5] = target: T2, recombinant mouse TIMP-3; experiment: direct ELISA, coated muTIMP-3
Protocol: as §1

[6] = target: T3, recombinant TIMP-3 (human or mouse; …); experiment: AlphaScreen, biotinylated TIMP-3, Assay 1
Protocol: (§2) Peptides were also evaluated by AlphaScreen® (Amplified Luminescent Proximity Homogeneous Assay; PerkinElmer, Waltham, Mass.) a very sensitive non-radioactive homogeneous assay technology that allows the screening of a large range of biological interactions and activities, substantially according to the manufacturer's instructions. Briefly, all dilutions are made in AlphaScreen® Buffer: [40 mM HEPES pH 7.5, 100 mM NaCl, 1 mM CaCl2, 0.1% BSA, 0.05% Tween-20]. The LRP-1 peptides are titrated in a separate polypropylene 96-well plate (Falcon) starting at 4 microM concentration and then diluted serially 3-fold for 12-points, with the last point buffer only. First 2 microL/well of protein titration curve is added to white, small volume, 384-well assay plate (Greiner Bio-One, Stonehouse, UK) in duplicate. Next, 2 microL of biotinylated (AFS, in-house conjmicroGation) recombinant human or mouse TIMP-3, is added at 12 nM (or 3 nM final assay concentration) to the assay plate. Lastly, in subdued light 4 microL of a mixture of streptavidin donor beads, anti-mouse IgG acceptor beads (PerkinElmer) both diluted to 20 microG/mL (10 microG/mL final assay concentration) and 2 nM (1 nM final concentration) rat-anti-HA (clone3F10)-HRP (Roche Diagnostics) is added to the plates. Plates containing 8 microL final assay volme are covered with TopSeal A (to prevent evaporation), spun quickly at 1000 rpm, and incubated overnight (covered with foil to prevent light exposure) before reading on Fusion plate reader (PerkinElmer) using AlphaScreen® parameters (excitation 680 nm and emission 520-620 nm). Data is analyzed using GraphPad Prism 4.01 software. Binding to TIMP-3 is reported as total signal (cps).

[7] = target: T3, recombinant TIMP-3 (human or mouse; …); experiment: AlphaScreen, biotinylated TIMP-3, Assay 2
Protocol: as §2

[8] = target: T1, recombinant human TIMP-3; experiment: indirect ELISA, huTIMP-3 captured by anti-TIMP-3 clone 277128
Protocol: Then 100 microL/well of the diluted LRP-1 peptide titration is added to the TIMP-3 coated plate and allowed to bind for 1.5 hour at room temperature with shaking. After incubation, the plate is washed three times with 200 microL/well of wash buffer 2 (TBS [pH 7.5], 1 mM CaCl₂, 0.02% Tween-20). […] The assay plate is then washed three times with 200 microL/well with wash buffer 2. The plate is developed by adding 100 microL/well of 1:1 mixture of TMB and H₂O₂ (Pierce, Fisher Thermo Scientific, Rockford Il.), the reaction is stopped by adding 100 microL/well 2NH₂SO₄ (VWR), and read on a SpectraMax microplate reader (Molecular Devices, Sunnyvale, Calif.) at OD450 nm using SOFTmax Pro software version 3.1.2. Data is analyzed using GraphPad Prism 4.01 software. Binding of LRP-1 peptides to TIMP-3 is expressed as binding EC50.
After incubation, the plate contents are discarded and 250 microL/well of blocking buffer (1% BSA, TBS [pH 7.5], 1 mM CaCl₂) is added to the plate which is incubated with shaking for 1 hour at room temperature. The plate is then washed three times with 200 microL/well with wash buffer 1 (TBS [pH 7.5], 1 mM CaCl₂) followed by the addition of 100 microL of 20 nM recombinant human TIMP-3. The plate is incubated at room temperature for 1 hour. The LRP-1 peptides are titrated as described previously, and 100 microL/well of the diluted LRP-1 peptide titration is added to the TIMP-3 coated plate and allowed to bind for 1.5 hour at room temperature with shaking. After incubation, the plate is washed and the ELISA performed substantially as described previously for the direct binding ELISA.

[9] = target: MMP-13 (UniProt P45452 20-471, limits assumed); experiment: cell-based or functional assay
[10] = target: T3, recombinant TIMP-3 (human or mouse; …); experiment: binding ELISA, Assay 1

Binder | EC50 [1] | EC50 [2] | % of the inhibitory activity of TIMP-3 + peptide compared to TIMP-3 alone, 16 nM [3] | % of the inhibitory activity of TIMP-3 + peptide compared to TIMP-3 alone, 80 nM [3] | % of the inhibitory activity of TIMP-3 + peptide compared to TIMP-3 alone, 400 nM [3] | % of the inhibitory activity of TIMP-3 + peptide compared to TIMP-3 alone, 2000 nM [3] | EC50 [4] | EC50 [5] | total signal (cps) [6] | total signal (cps) [7] | EC50 [8] | Direct Inhibition of MMP13 (% decrease), 1000 nM [9] | EC50 [10] | binding result [5]
B1 | 211 nM | 436 nM | 90% | 88% | 87% | 92% | 162 nM | 124 nM | 290000 cps | 130000 cps | 32 nM |  |  | 
B2 | 673 nM |  | 97% | 101% | 105% | 101% | 167 nM and 99 nM | 117 nM and 80 nM | 20000 cps | 5000 cps | 41 nM and 20 nM |  |  | 
B3 | ~500 nM | ~1000 nM | 104% | 104% |  | 81% | 68 nM | 66 nM | 2200 cps | 2000 cps | 10 nM | -22% |  | 
B4 | 1220 nM | ~1000 nM | 96% | 95% | 94% | 94% | 742 nM |  | 5000 cps | 2000 cps | 447 nM |  |  | 
B5 |  | 657 nM and 1040 nM | 94% | 89% | 84% | 93% |  | 696 nM | 110000 cps | 100000 cps | 219 nM | -6% |  | 
B6 | 289 nM | 500 nM | 104% |  | 84% | 91% | 226 nM | 155 nM | 9000 cps | 3500 cps | 81 nM |  |  | 
B7 | 400 nM | 512 nM | 97% | 80% | 72% | 65% |  | 332 nM | 6000 cps | 4000 cps | 78 nM | 16% |  | 
B8 |  | 191 nM | 95% | 82% | 83% | 91% | 510 nM | 306 nM | 90000 cps | 70000 cps | 100 nM |  | 193 nM | 
B9 | ~5000 nM | ~1500 nM | 104% | 95% | 67% | 58% | 901 nM |  | 2200 cps | 2000 cps | 378 nM | 61% |  | 
B10 | 900 nM | ~3000 nM |  |  |  |  |  |  | 2200 cps | 2000 cps |  |  |  | no binding (tested: titration from 1 microM)
